Among the data in paper doi:10.1101/317651, “Poly(ADP-ribose) polymerase 1 Searches DNA via a ‘Monkey Bar’ Mechanism” are Kd values, retold here.

What all share (settings): protein: recombinant; tags: His tag (Ni-NTA, pET28a); blunt
For one series, the target named is PARP1 wild-type (Homo sapiens, UniProt P09874 1-1014). The series is described as follows: stopped-flow fluorescence anisotropy; K1, first DNA; kinetically derived; 50 mM Tris-HCl pH 7.5, 50 mM NaCl, 1 mM MgCl2, 0.1 mM EDTA, 0.01% IGEPAL; 20 °C (stated for association).
Sequence of PARP1 wild-type (P09874 whole entry): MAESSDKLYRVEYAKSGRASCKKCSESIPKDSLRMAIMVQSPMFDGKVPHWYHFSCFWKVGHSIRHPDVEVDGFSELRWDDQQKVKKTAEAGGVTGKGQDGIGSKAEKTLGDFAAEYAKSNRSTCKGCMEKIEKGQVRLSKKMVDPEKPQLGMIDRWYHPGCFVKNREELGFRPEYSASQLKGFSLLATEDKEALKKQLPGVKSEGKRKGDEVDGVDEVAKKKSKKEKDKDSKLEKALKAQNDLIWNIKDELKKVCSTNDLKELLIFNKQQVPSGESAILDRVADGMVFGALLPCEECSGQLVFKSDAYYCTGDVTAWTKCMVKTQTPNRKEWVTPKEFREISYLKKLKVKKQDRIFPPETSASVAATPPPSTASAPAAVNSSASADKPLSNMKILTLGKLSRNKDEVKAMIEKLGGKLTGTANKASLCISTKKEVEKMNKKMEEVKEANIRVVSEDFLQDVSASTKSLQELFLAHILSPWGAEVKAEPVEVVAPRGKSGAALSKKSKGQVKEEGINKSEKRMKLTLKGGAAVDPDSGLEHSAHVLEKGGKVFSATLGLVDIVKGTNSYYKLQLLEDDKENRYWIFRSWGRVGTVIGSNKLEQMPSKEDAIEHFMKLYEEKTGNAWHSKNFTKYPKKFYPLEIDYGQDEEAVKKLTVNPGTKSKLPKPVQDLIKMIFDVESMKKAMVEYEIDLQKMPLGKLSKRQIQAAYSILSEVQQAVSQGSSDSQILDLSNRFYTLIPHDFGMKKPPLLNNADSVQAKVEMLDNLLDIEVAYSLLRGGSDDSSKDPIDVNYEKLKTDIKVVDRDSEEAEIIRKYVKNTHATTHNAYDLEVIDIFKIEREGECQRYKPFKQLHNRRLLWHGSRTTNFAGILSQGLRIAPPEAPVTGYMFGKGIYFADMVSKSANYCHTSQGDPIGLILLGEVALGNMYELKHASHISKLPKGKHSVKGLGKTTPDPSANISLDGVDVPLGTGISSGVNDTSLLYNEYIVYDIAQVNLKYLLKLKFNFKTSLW
A further series has as its target PARP1 ΔZn1 (Homo sapiens, UniProt P09874 1-1014, del2-96). The series is described as above.
The next series has as its target PARP1 W589A (Homo sapiens, UniProt P09874 1-1014, W589A). The series is described as follows: stopped-flow fluorescence anisotropy; K1; kinetically derived, Scheme 2 (no ternary complex); 50 mM Tris-HCl pH 7.5, 50 mM NaCl, 1 mM MgCl2, 0.1 mM EDTA, 0.01% IGEPAL; 20 °C (stated for association).

Sequence of PARP1 W589A (P09874 whole entry W589A): as the sequence (P09874 whole entry) above, with W589A counted along it
Sequence of PARP1 ΔZn1 (P09874 other isoform, or with tags, fused parts or gaps del2-96 | mutant): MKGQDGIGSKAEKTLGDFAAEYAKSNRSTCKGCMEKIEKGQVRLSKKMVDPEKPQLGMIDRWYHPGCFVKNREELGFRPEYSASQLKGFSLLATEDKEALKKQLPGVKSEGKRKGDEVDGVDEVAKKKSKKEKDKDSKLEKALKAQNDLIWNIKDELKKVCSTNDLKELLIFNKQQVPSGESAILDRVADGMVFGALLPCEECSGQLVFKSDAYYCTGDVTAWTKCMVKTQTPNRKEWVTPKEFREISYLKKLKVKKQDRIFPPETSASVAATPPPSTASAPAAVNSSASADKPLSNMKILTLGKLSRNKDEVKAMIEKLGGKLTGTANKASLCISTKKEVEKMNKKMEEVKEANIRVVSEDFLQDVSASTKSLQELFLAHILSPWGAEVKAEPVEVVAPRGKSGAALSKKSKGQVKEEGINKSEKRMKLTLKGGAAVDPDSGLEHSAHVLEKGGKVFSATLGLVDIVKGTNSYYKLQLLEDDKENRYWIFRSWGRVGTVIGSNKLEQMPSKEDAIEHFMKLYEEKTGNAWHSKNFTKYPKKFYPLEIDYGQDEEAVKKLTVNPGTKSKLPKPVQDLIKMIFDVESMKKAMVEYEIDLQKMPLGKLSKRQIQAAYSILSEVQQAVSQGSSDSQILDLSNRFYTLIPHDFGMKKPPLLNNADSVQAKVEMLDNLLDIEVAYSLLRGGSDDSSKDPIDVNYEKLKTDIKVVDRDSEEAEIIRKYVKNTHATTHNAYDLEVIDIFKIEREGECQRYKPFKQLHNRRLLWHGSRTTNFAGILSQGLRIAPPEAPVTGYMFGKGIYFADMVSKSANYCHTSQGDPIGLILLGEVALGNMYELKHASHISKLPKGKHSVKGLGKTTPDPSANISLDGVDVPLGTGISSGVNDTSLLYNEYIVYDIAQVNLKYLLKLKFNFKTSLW

B1: p18mer* (dsDNA)
DNA 1: GGGTTGCGGCCGCTTGGG
DNA 2: CCCAAGCGGCCGCAACCC
modifications: 5'-phosphate
Take B1: the values for the Kd with PARP1 wild-type, with PARP1 ΔZn1 and with PARP1 W589A were below 3.2 nM, below 2.7 nM and 4.9 ± 1.1 nM, respectively.

By Kd is commonly meant the concentration at which binding is half-saturated.
